# PMC7826288, “Dynamics of TRF1 organizing a single human telomere” (Nucleic Acids Research, 2020)
# Target: the molecule itself
# Assay: SEC; Superdex 200 Increase 10/300 GL, 20 mM Tris-HCl (pH 8.0), 200 mM NaCl; molecular weight assessed against standard molecular markers
protein,measurement,value
"human TRF1(3-439) (natural protein, UniProt P54274 3-439, looked up, also called TRF1 dimer; source: E. coli BL21(DE3), purified (Ni-NTA, 3C protease, HiTrap Heparin, Superdex 200)) EDVSSAAPSPRGCADGRDADPTEEQMAETERNDEEQFECQELLECQVQVGAPEEEEEEEEDAGLVAEAEAVAAGWMLDFLCLSLCRAFRDGRSEDFRRTRNSAEAIIHGLSSLTACQLRTIYICQFLTRIAAGKTLDAQFENDERITPLESALMIWGSIEKEHDKLHEEIQNLIKIQAIAVCMENGNFKEAEEVFERIFGDPNSHMPFKSKLLMIISQKDTFHSFFQHFSYNHMMEKIKSYVNYVLSEKSSTFLMKAAAKVVESKRTRTITSQDKPSGNDVEMETEANLDTRKSVSDKQSAVTESSEGTVSLLRSHKNLFLSKLQHGTQQQDLNKKERRVGTPQSTKKKKESRRATESRIPVSKSQPVTPEKHRARKRQAWLWEEDKNLRSGVRKYGEGNWSKILLHYKFNNRTSVMLKDRWRTMKKLKLISSDSED",stoichiometry N,2
